Here are results for two molecules from patent US7867500B2, “Cofactor that modulates steroid receptor activities” (The United States of America as represented by the …, priority 2004, dated 2011).

Common to all, as to type: cell-based
Series [1] addresses T1, thyroid (TR) (β) receptor (Homo sapiens, UniProt P10828).
T1 construct: plus VP16 fused to the indicated full length receptors; expressed in transfected cells; host or cells: CV-1
T1 sequence (P10828 1-461): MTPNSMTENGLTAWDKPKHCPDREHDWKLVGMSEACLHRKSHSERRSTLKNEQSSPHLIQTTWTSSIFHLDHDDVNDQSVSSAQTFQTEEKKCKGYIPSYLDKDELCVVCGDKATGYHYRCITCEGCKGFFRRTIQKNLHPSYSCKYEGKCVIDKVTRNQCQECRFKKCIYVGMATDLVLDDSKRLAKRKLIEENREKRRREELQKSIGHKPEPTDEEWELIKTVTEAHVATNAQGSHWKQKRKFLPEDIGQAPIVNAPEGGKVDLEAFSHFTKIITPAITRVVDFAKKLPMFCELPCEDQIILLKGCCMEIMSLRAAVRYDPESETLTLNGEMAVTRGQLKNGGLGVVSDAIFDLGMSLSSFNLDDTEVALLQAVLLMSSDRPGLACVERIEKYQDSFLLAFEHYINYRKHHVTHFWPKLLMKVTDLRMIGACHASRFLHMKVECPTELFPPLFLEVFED
The series is described as follows: Mammalian two-hybrid assay with VP16 full length receptor: TRβ. The following applies: 0.1 μM triiodothyronine. On the procedure: (§1) FIG. 6C1-3 illustrate the association of STAMP with assorted steroid/nuclear receptors, including glucocorticoid receptors (GRs), progesterone receptors (PRs), androgen receptors (ARs), estrogen receptors (ER α or β), PPARγ2 receptors, thyroid receptor beta (TR), and retinoid (α) receptors (RAR α or RXR α). Triplicate samples of CV-1 cells were transfected (as described for FIG. 6B) with GAL, or GAL fused to TIF2.4 or STAMP834C, plus VP16 fused to the indicated full length receptors and incubated with the appropriate steroid (1 μM Dex, 20 nM R5020, 1 nM R1881, 0.1 μM triiodothyronine, or 1 μM estradiol, roziglitazone, or 9-cis-retinoic acid). The average relative luciferase activities of 2-3 experiments±S.E.M. were then plotted. FIG. 6C1 illustrates the effects of STAMP association upon GR, PR and AR induced expression. FIG. 6C2 illustrates the effects of STAMP association upon ERα, ERβ and PPARγ2 induced expression. FIG. 6C3 illustrates the effects of STAMP association upon TR, RARα and RXRα induced expression.
(§2) These assays were conducted as described (He et al., 2002). […]

A further series addresses T2, RXR α (Homo sapiens, UniProt P19793).
T2 construct: plus VP16 fused to the indicated full length receptors; expressed in transfected cells; host or cells: CV-1
T2 sequence (P19793 1-462): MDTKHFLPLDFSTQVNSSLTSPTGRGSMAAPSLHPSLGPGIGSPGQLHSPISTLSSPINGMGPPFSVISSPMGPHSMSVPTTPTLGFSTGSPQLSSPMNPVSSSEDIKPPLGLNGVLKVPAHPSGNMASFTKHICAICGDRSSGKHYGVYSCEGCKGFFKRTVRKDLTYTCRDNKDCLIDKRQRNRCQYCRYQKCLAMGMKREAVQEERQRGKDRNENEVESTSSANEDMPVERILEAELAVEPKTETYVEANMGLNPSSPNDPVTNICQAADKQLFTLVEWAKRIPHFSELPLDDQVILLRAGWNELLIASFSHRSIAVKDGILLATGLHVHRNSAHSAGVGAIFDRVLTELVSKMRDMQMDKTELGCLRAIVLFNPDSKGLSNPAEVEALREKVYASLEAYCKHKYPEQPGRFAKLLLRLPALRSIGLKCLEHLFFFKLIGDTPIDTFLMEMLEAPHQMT
The series is described as follows: Mammalian two-hybrid assay with VP16 full length receptor: RXRα. The following applies: 1 μM 9-cis-retinoic acid. On the procedure: as §1, §2

The target in the next series is T3, thyroid receptor β (TRβ) (Homo sapiens, UniProt P10828).
T3 construct: the whole cell actions of TIF2 with full length AR and TRβ; expressed in transfected cells; host or cells: CV-1
T3 sequence (P10828 1-461): T1 sequence (P10828 1-461)
Briefly: TRβ-mediated induction of reporter in CV-1 cells. The following applies: triiodothyronine; regardless of whether TIF2 is present. On the procedure:
FIG. 6D1-2 illustrate the effects of STAMP and TIF2 on androgen receptor (AR, FIG. 6D1) and thyroid receptor β (TRβ, FIG. 6D2) expression. […] Luciferase activities, normalized to the internal Renilla control values, and the fold changes in EC50 and fold induction were determined and plotted as in FIG. 4B.

B1: STAMP834C: STAMP fragment amino acids 834-1277, receptor interaction domain (RID) (protein)
chain: GDHPETIMEEVKIKPPKQQQTTEIHSDKLSRFTTSAEKEAKLVYSNSSSGPTATLQKIPNTHLSSVTTSDLSPGPCHHSSLSQIPSAIPSMPHQPTILLNTVSASASPCLHPGAQNIPSPTGLPRCRSGSHTIGPFSSFQSAAHIYSQKLSRPSSAKAGSCYLNKHHSGIAKTQKEGEDASLYSKRYNQSMVTAELQRLAEKQAARQYSPSSHINLLTQQVTNLNLATGIINRSSASAPPTLRPIISPSGPTWSTQSDPQAPENHSSSPGSRSLQTGGFAWEGEVENNVYSQATGVVPQHKYHPTAGSYQLQFALQQLEQQKLQSRQLLDQSRARHQAIFGSQTLPNSNLWTMNNGAGCRISSATASGQKPTTLPQKVVPPPSSCASLVPKPPPNHEQVLRRATSQKASKGSSAEGQLNGLQSSLNPAASVPITSSTDPAHTKI
Turning to B1, the “interaction with thyroid receptor β” value in series [1] is on record as “lack of interaction”. For the same molecule, the “interaction with RXR α” value with RXR α is on record as “lack of interaction”.

B2: STAMP: SRC-1 and TIF2 Associated Modulatory Protein, 1277 amino acid human polypeptide, expressed from transfected plasmid (protein)
chain: MARDLEETASSSEDEEVISQEDHPCIMWTGGCRRIPVLVFHADAILTKDNNIRVIGERYHLSYKIVRTDSRLVRSILTAHGFHEVHPSSTDYNLMWTGSHLKPFLLRTLSEAQKVNHFPRSYELTRKDRLYKNIIRMQHTHGFKVFHILPQTFLLPAEYAEFCNSYSKDRGPWIVKPVASSRGRGVYLINNPNQISLEENILVSRYINNPLLIDDFKFDVRLYVLVTSYDPLVIYLYEEGLARFATVRYDQGAKNIRNQFMHLTNYSVNKKSGDYVSCDDPEVEDYGNKWSMSAMLRYLKQEGRDTTALMAHVEDLIIKTIISAELAIATACKTFVPHRSSCFELYGFDVLIDSTLKPWLLEVNLSPSLACDAPLDLKIKASMISDMFTVVGFVCQDPAQRASTRPIYPTFESSRRNPFQKPQRCRPLSASDAEMKNLVGSAREKGPGKLGGSVLGLSMEEIKVLRRVKEENDRRGGFIRIFPTSETWEIYGSYLEHKTSMNYMLATRLFQDRMTADGAPELKIESLNSKAKLHAALYERKLLSLEVRKRRRRSSRLRAMRPKYPVITQPAEMNVKTETESEEEEEVALDNEDEEQEASQEESAGFLRENQAKYTPSLTALVENTPKENSMKVREWNNKGGHCCKLETQELEPKFNLMQILQDNGNLSKMQARIAFSAYLQHVQIRLMKDSGGQTFSASWAAKEDEQMELVVRFLKRASNNLQHSLRMVLPSRRLALLERRRILAHQLGDFIIVYNKETEQMAEKKSKKKVEEEEEDGVNMENFQEFIRQASEAELEEVLTFYTQKNKSASVFLGTHSKISKNNNNYSDSGAKGDHPETIMEEVKIKPPKQQQTTEIHSDKLSRFTTSAEKEAKLVYSNSSSGPTATLQKIPNTHLSSVTTSDLSPGPCHHSSLSQIPSAIPSMPHQPTILLNTVSASASPCLHPGAQNIPSPTGLPRCRSGSHTIGPFSSFQSAAHIYSQKLSRPSSAKAGSCYLNKHHSGIAKTQKEGEDASLYSKRYNQSMVTAELQRLAEKQAARQYSPSSHINLLTQQVTNLNLATGIINRSSASAPPTLRPIISPSGPTWSTQSDPQAPENHSSSPGSRSLQTGGFAWEGEVENNVYSQATGVVPQHKYHPTAGSYQLQFALQQLEQQKLQSRQLLDQSRARHQAIFGSQTLPNSNLWTMNNGAGCRISSATASGQKPTTLPQKVVPPPSSCASLVPKPPPNHEQVLRRATSQKASKGSSAEGQLNGLQSSLNPAASVPITSSTDPAHTKI
As for B2, in the series with thyroid receptor β (TRβ), the “increase of the fold induction with TRβ” value is recorded as “little ability” and the “left-shift in the dose-response curve with TRβ” value is recorded as “little ability”.
